Each block holds one binder with its values, some of them ahead of it. Ends that are not written are not given here. muFc = mouse Fc fragment of vector pCMV-V5-muFc
Experiments:
[1] = target: T1, scFv-P1A6E-Fc (human, UniProt P01857-1 99-330 = IgG part, limits assumed); test: ELISA on peptide-muFc fusion proteins
T1 construct: domain: Fc fragment; scFv cloned NheI/BamHI into pCMV-V5-Fc, expressed in HEK-293F, protein A purified; also called P1A6E single chain antibody; antibody-Fc fusion protein scFv-P1A6E-Fc

[2] = target: T2, scFv-P3F2-Fc (human, UniProt P01857-1 99-330 = IgG part, limits assumed); test: ELISA on peptide-muFc fusion proteins
T2 construct: domain: Fc fragment; scFv cloned NheI/BamHI into pCMV-V5-Fc, expressed in HEK-293F, protein A purified; also called P3F2 single chain antibody; P3F2 single chain antibod

[3] = target: T2, scFv-P3F2-Fc; test: ELISA, scFv-Fc against MSLT-R3-mFc; x axis con.(nM) [right panel]
[4] = target: T1, scFv-P1A6E-Fc; test: ELISA, scFv-Fc against MSLT-R3-mFc; x axis con.(nM) [left panel]
[5] = target: T2, scFv-P3F2-Fc; test: ELISA, scFv-Fc against MSTL-R1B-mFc; x axis con.(nM) [right panel]
[6] = target: T1, scFv-P1A6E-Fc; test: ELISA, scFv-Fc against MSTL-R1B-mFc; x axis con.(nM) [left panel]
[7] = target: T1, scFv-P1A6E-Fc; test: ELISA, scFv-Fc against MSLT-R2-mFc; x axis con.(nM) [left panel]
[8] = target: T2, scFv-P3F2-Fc; test: ELISA, scFv-Fc against MSLT-R2-mFc; x axis con.(nM) [right panel]

T2 sequence (P01857 other isoform, or with tags, fused parts or gaps limits assumed): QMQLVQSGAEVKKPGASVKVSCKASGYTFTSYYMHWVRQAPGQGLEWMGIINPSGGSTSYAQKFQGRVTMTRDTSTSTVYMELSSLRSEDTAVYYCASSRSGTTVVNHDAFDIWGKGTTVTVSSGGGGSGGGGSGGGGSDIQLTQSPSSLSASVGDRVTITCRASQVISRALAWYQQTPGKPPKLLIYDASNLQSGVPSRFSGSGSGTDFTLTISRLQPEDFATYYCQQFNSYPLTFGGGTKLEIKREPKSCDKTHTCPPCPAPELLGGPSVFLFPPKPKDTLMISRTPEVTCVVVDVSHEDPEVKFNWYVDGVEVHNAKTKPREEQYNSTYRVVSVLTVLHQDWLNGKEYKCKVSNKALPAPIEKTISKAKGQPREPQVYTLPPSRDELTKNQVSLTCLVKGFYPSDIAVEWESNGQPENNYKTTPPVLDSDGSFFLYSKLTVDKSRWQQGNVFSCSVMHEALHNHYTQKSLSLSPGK
T1 sequence (P01857 other isoform, or with tags, fused parts or gaps limits assumed): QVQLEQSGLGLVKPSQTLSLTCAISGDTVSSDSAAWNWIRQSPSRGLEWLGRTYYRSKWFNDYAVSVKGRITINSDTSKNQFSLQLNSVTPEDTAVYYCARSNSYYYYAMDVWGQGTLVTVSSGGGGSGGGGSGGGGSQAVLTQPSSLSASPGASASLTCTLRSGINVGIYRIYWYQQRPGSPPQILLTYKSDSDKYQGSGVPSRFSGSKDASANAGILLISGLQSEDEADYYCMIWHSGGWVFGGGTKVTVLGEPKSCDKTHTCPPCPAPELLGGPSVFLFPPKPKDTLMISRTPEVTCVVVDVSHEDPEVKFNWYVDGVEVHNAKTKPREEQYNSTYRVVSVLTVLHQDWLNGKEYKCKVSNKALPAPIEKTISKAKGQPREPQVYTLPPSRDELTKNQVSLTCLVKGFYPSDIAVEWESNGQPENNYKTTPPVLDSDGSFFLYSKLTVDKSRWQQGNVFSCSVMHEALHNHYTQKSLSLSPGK

binding result [1]: no binding
binding result [2]: no binding
Binder: YKKWELEACVDAALLATQMDRVNAIPFTYE (Fc fusion, not shown: mouse Fc fragment (muFc)) [mesothelin peptide R1J10-muFc fusion protein]

B1: human mesothelin region R3 (N487-G581)-muFc fusion protein (Fc fusion)
chain: NMNGSEYFVKIQSFLGGAPTEDLKALSQQNVSMDLATFMKLRTDAVLPLTVAEVQKLLGPHVEGLKAEERHRPVRDWILRQRQDDLDTLGLGLQG
notes: not shown: mouse Fc fragment of vector pCMV-V5-muFc
binding result [3]: no binding (tested: last point between 100 and 1000 nM)
binding result [4]: no binding (tested: last point between 100 and 1000 nM)

B2: human mesothelin region R1B (328D-369I)-muFc fusion protein (Fc fusion)
chain: DAALLATQMDRVNAIPFTYEQLDVLKHKLDELYPQGYPESVI-muFc
notes: as for B1
binding result [5]: no binding (tested: last point just under 100 nM)
binding result [6]: no binding (tested: last point just under 100 nM)

B3: human mesothelin region R2 (S391-Q486)-muFc fusion protein (Fc fusion)
chain: SLETLKALLEVNKGHEMSPQVATLIDRFVKGRGQLDKDTLDTLTAFYPGYLCSLSPEELSSVPPSSIWAVRPQDLDTCDPRQLDVLYPKARLAFQ
notes: as for B1
binding result [7]: no binding (tested: last point between 100 and 1000 nM)
binding result [8]: no binding (tested: last point between 100 and 1000 nM)

Reference: US20180244796A1 (CARSGEN THERAPEUTICS, published 2018)
